# Test results as given in the DeepSol protein solubility set.
# Experiment: soluble on expression in E. coli; label from the status in PepcDB or PDB records
row,Sequence,soluble on expression in E. coli
1,MTSPFKVVAVSGGTYRPSRTLVLTQALIAELGQSLPIDSRVIELTDIAAPLGATLARNQAPAELQAVLDEIESADLLLVASPVYRGSYPGLLKHLFDLIDLNALIDTPVLLAATGGTERHALVLDHQLRPLFSFFQAITLPIGVYASEADFDNYRIVSEPLKARIRLAAERAAPLFGGRSELLKIALEHHHHHH,not soluble
2,MGSDKIHHHHHHMKKVRAAIVGYGNIGHYVLEALQAAPDFEIAGVVRRAGAENKPEELANYAVVKDIKELEGVEVAILCTPTRSVEKYAKEYLAMGINTVDSFDIHTGIVDLRRTLDATAKEHKAVSIISAGWDPGSDSIVRTMLEAIAPKGITYTNFGPGMSMGHTVAVKAIDGVKAALSMTIPTGTGIHRRMVYIELKDGYKFEEVAAAIKADPYFVNDETHVKLVPSVDALLDMGHGVNLTRKGVSGKTQNQLFEFNMRINNPALTAQVLVCVARASMKQQPGCYTMVEVPVIDLLPGDREEWIGHLV,not soluble
3,QTSAVQQKLAALEKSSGGRLGVALIDTADNTQVLYRGDERFPMCSTSKVMAAAAVLKQSETQKQLLNQPVEIKPADLVNYNPIAEKHVNGTMTLAELSAAALQYSDNTAMNKLIAQLGGPGGVTAFARAIGDETFRLDRTEPTLNTAIPGDPRDTTTPRAMAQTLRQLTLGHALGETQRAQLVTWLKGNTTGAASIRAGLPTSWTAGDKTGSGDYGTTNDIAVIWPQGRAPLVLVTYFTQPQQNAESRRDVLASAARIIAEGL,soluble
4,MIGVGKMKQYSNVLDKPLSKGKQEVSLTAFAFLFSELVQYNQTQVDNIAELERRLEDAGYAVGSRVLELLCNREKGNRRETRLLGILSFVHSTVWKVLFGKVADSLEKGTEHEDEYMISEKELLVNRFISIPKDMGTFNCGAFVAGIVKGVLDNAGFPAVVTAHFVPIEGQQRPRTTILIKFADEVLKREARLSQ,soluble
5,MGSDKIHHHHHHMKVLLYLEGKTVLEKSGIGRALQHQMEALDMAGIPYTTDLLGDYDVIHINTYGPRSWLLLHAAKRSGKKVIMHGHSTKEDFQNSFIGSNTLAPFVGKYLASMYQKADFVITPSEYSKKLIQSYGVTTPIIAVSNGIDLDKYKKDERKEAIFREHFKIEEGQPVVVCAGLYFRRKGIEDFVKVAEKMPHVRFIWLGSINKWLIPSYIRKIVEGDHPANVEFPGYFKGAVFQGAMSGADAFFFPSYEETEGIVVLEALASHQHVVLRDIPVYDGWVDENVAELGHTVDDFVDSIQKILDKQVDKREAGYQVAVSRSIDNVSHQLVDAYRQVLEM,not soluble
6,MGSDKIHHHHHHMGEMVELKKELLRDVDLAERLLGRERPVKSEIEIRGKITRSTIEEISRIKKEPEWMKRLRLRSLELFYKLPTPKWLVGIDVIDLDEMIVYSKPETERASSWEELPKEIREFYERLGLPEIEARFLSGLSAVFDSETVYARVKKYLEEKGVIVMPIEEAVQKYPDLVKRYFMRVFPPSDHKFAALHGALWSGGTFIYVPRGVKIREPIESFFLIGKSGEGQFEHSLIVADEGAYVEWIEGCSAPRLTKFSFHDGMVEAYAHRNATIKIITVQNWSKDVINLNNKRAIAEEGARVDWVEGSIGSKMTFVYPSTILKGDNSSSRSAVVTIAKGPYLKDSGSKMIHVGRNTRSQVINKTISADGGINVYRGIIRIVKGARNAVANVECESLILDDKSKAHTYPHNQVDEPTASVNHEATTGRLTEPQLFYLTSRGLTEEEAKSLIVLGFLEDVLKELPFEYANVLTKVVRLEFSEYGAFG,not soluble
7,QGVDQSPKPLIIGPEEDYDPGYFNNESDIIFQDLEKLKSRPAHLGVFLRYIFSQADPSPLLFYLCAEVYQQASPKDSRSLGKDIWNIFLEKNAPLRVKIPEMLQAEIDSRLRNSEDARGVLCEAQEAAMPEIQEQIHDYRTKRTLGLGSLYGENDLLDLDGDPLRERQVAEKQLAALGDILSAYAADRSAPMDFALNTYMSHAGIRLREA,soluble
8,MSKKIRNTEVDHLFDAILTLENKEECYTFFEDVCTVNELLSISQRYEVAKMLREGKTYLDISNATGASTATISRVNRSLNYGNDGYDMVLERVLKKDE,not soluble
9,MAYQLYRNTTLGNSLQESLDELIQSQQITPQLALQVLLQFDKAINSALAQRVRNRVNFRVRMSSCIWKSVLLTLRAYVDLTHHSKIWLVWFGNLFYNRCAKFIHSMCFRIAFRF,not soluble
10,MALNVAPVRDTKWLTLEVCRQFQRGTCSRSDEECKFAHPPKSCQVENGRVIACFDSLKGRCSRENCKYLHPPTHLKTQLEINGRNNLIQQKTAAAMLAQQMQFMFPGTPLHPVPTFPVGPAIGTNTAISFAPYLAPVTPGVGLVPTEILPTTPVIVPGSPPVTVPGSTATQKLLRTDKLEVCREFQRGNCARGETDCRFAHPADSTMIDTSDNTVTVCMDYIKGRCMREKCKYFHPPAHLQAKIKAAQHQANQAAVAAQAAAAAATVMAFPPGALHPLPKRQALEKSNGTSAVFNPSVLHYQQALTSAQLQQHAAFIPTVPMMHSATSATVSAATTPATSVPFAATATANQIILK,soluble
11,MAIRVIGTGFGRTGTDSMREALTILGFGPCHHMSEVMGNEDQKRLWRALAKGAAPDWNQLFAGYASCIDWPSAHYWRDLIEFYPKARVILTYRSPESWWASFEKTILAGISQSTDQESLGLALISRQVFDGRPHDRANAIAVYEANVRAVIATVPPSRLLVHNLGDGWKPLCLHLDVPVPDKPYPNRNTTKDFQSALAQN,soluble
12,MGSDKIHHHHHHMSESAESVELIKLPVSQLTLGMFVSAIDKNDKGQLAIANAGQIKHKDAILKLAKSGIKFVWVDAERSAEHCGLKKKTTNDSQTDNRKAPVSRDKQQAQAKVMLTEAKDLIRKVLSETFEGKAIEVAPFEALADTMIESVMLDADALKCMSALRSKDAYLLEHSVNVAFLLVTFGKYLQLDRDMLRQMAVGGILHDIGKIKVDNKVLHKPGKLTPEEFEHMKLHQVYELEIMNETTGLSQISKDICLMHHEKLDGRGYPRGLKDDEIPRHGRMSCIVDIFDALTATRCYKEAMSPAAAFKILLSLTPFHLDQQLVYEFIRCIGIYPVGSLVELSDGRIGIVWASKDRDALHPIVKCFYSLKVKRYTDVAMVDLLKSELYIERGVSPSSLDIDPTPFY,not soluble
13,MRYGEKEIKEFDVENMEIWPNDAKNDYIIKITLPEFMCCCPRSGYPDFATIYLEYMPDKFVVELKAIKLYINTFMYRNVSHEASINEIYNTLKDKLKPKWIKVVGDFNPRGNVHTVIECRSDMVVPK,not soluble
14,MEETSMGKLSICRQNVPMKSMPSRLPKIDQAGVARRLEALRDALGLDKGEFAQSFGLDPSSYSKVLQGKKPLKSEYGHAIAEGWGVSMDFIYRGDMSRIDETLRTKVMQNLTAPMR,not soluble
15,SPAPPACDLRVLSKLLRDSHVLHSRLSQCPEVHPLPTPVLLPAVDFSLGEWKTQMEETKAQDILGAVTLLLEGVMAARGQLGPTCLSSLLGQLSGQVRLLLGALQSLLGTQLPPRGRTTAHKDPNAIFLSFQHLLRGKVRFLMLVGGSTLCVRRAPPTTAVPS,soluble
16,VDIYASMTPAKDVGGDFYDFFQIDDERIGLVIADVSGKGVPASLFMAVSRTLLRATALRGVSSAECLTYANKLLCKESLDSMFVTVFYGIYHYKTGMMDYTNAGHNPPYLLRGGRTVECLPVASNFVVGVFDDIEFESNTLTFGIGDTLLLYTDGVTEAFNDKREQFSESNLQDILASMHESSSAKEVVTSVLQSVKTFSGDYPQSDDITLLSLQRIK,not soluble
17,MFARSAQRFSDGDRLEVGGWPVRLKVDGRARRISLRVDRARSEIVALSPTPRRLNEAVAFAQEKAGWIAKQLAALPERMSLAPGGVLRLNDKPFRLEVGAGRARIDGDRIVAPDDANWGLKVIRLAKREALTVLTERTAIHAAALGRPVPSVAIADPKARWGSCRPATSRAPAAIRYSWRLILAPAVVADYVAAHECAHLIEANHGPRFWALCEQLIGDPTPHRAWLRAHAAELHAIGALEHHHHHH,not soluble
18,MSLMYSRKFQILKENIGLYHGDFMDFEVYDTEYMSIIFVKDRLDYTGKEIEPLWAFKTFDIQKDSIVVFRGRMEVTTENMKDLKDIKREKDIKTPIKSEDAINFVVEHFDVIDLKTIYLRQRLLVFIAKEVIESYNIKLKRDGDDLYFEDKKLSVCIACKGTVSAKIHLGINVKSKGAEHVKIIGLEDLGIKDIDKVMREIAINYAKEIDKIERDLRKTLPLIEGHHHHHH,soluble
19,MGSDKIHHHHHHMSHRFFYRILGMRYLTSTNRKGYARMLFHRFSEKEWNFLKNDENNECFSCLMFYSRTGNAGRLEEEITDMKVDILSREYPPKVYGGAGVHAEELSKVLAERVDVTVRAFDGPRTAADIPAIPGTDPKGSLTVVGYDVPKELEDANGALKTFGVDLQIANDVDADIIHAHTWYACLAGYLAKMLHDTPLVITAHSLEPFRPWKREQLGGGYNLSSWAEKDAYEHADRVIAVSAGMREDILTAYPNLDPDKVVVVHNGITMSQFETPADDDPGWKVFERYNIDRSKPTLLFVGRITRQKGLPYLLQALHFVDPNIQVVLCAGAPDTPEIMEEVKTAFAKLDEERGNIIWIEEMLPKPELNALEHGCDAFICPSIYEPLGIVNLEAMACGLPVVASATGGIPEVVVDGETGYLVPVDQLHDGTGTPTNPDKFVHDMADAINRIMADPEKAKRMGQAGYERARDHFSWESIADKTVKVYEDVLAERK,not soluble
20,MSLDWFTVDDSVLRVALVFPLQGSAGIFGPTCELCARLAAEEVNRAGGVLGKELRLLPVDGGAPPREIADRVAALVDLGVVQGVTGWHISSVRQALAPRIAHRVPYVYTALYEGGEHTAGVFLTSETPRDQLRPAMRLLARERGVRRWFVIGNDYVWPRRTARAAHSYARECGGSIGGEVYLPLGTHDFEPVLRRIERSDADAVLMLLVGSDAVRFNRAFAAAGLDGRCLRLSTLMDENMLLASGPAATADLYSTAGFFASLANQDTLDFHGRYAARYGVEAPALGSLGESCYEGVLLLAALIGRAGTLEVSAIGAAADTVSYEGPRGLLRLRGGHVRQRIYLARADGLDFDVVAELDLHSSRPEGHHHHHH,not soluble
21,MAAPDIKTIVNGINIKQSFAIQNQIRDGGDGELAKPRYQATVVWDSGYHTTSNVTDGQIIIGDEPVHYGGEGMGITPQDLLLTAVGHCLAASYIGGLSAAHINVESLHVHVSGRVNFRAAFAVEPGNPGFEDISVIVEIQTDAPQEQVTALLEKLKHMAPIPDTIMRPVPVNIEIRHQLK,not soluble
22,MKIDASRRGILTGCWRKASNGIRPPWSGDESHFLTHCTRCDACINACENNILQRGTGGYPSVNFKNNECSFCYACAQACPESLFSPRHTRAWDLQFTIGDACLAYQSVECRRCQDSCEPMAIIFRPTLSGIYQAQLNSQLCNGCGACAASCPVSAITAEYLHAH,not soluble
23,GSHMNIITVTLNMEKYNFLGISIVGQSNERGDGGIYIGSIMKGGAVAADGRIEPGDMLLQVNDMNFENMSNDDAVRVLRDIVHKPGPIVLTVAKSGGGGEIVLWSDIP,soluble
24,MGSSHHHHHHSSGRENKYFQGHMRNVALITGITGQDGSYLAEFLLEKGYEVHGIVRRSSSFNTGRIEHLYKNPQAHIEGNMKLHYGDLTDSTCLVKIINEVKPTEIYNLGAQSHVKISFDLAEYTADVDGVGTLRLLDAVKTCGLINSVKFYQASTSELYGKVQEIPQKETTPFYPRSPYGAAKLYAYWIVVNFREAYNLFAVNGILFNHESPRRGANFVTRKISRSVAKIYLGQLECFSLGNLDAKRDWGHAKDYVEAMWLMLQNDEPEDFVIATGEVHSVREFVEKSFLHIGKTIVWEGKNENEVGRCKETGKVHVTVDLKYYRPTEVDFLQGDCTKAKQKLNWKPRVAFDELVREMVHADVELMRTNPNAGS,soluble
